Reference: publication PMC5865150, “Structure and evolution of the Fam20 kinases” (Nature Communications, 2018)

B3: purified human Fam20C (residues 63-584) of the solution studies (domain or fragment, UniProt Q8IXL6 63-584, looked up)
chain: VRGRPGEPPAASSAAGDAGWPNKHTLRILQDFSSDPSSNLSSHSLEKLPPAAEPAERALRGRDPGALRPHDPAHRPLLRDPGPRRSESPPGPGGDASLLARLFEHPLYRVAVPPLTEEDVLFNVNSDTRLSPKAAENPDWPHAGAEGAEFLSPGEAAVDSYPNWLKFHIGINRYELYSRHNPAIEALLHDLSSQRITSVAMKSGGTQLKLIMTFQNYGQALFKPMKQTREQETPPDFFYFSDYERHNAEIAAFHLDRILDFRRVPPVAGRMVNMTKEIRDVTRDKKLWRTFFISPANNICFYGECSYYCSTEHALCGKPDQIEGSLAAFLPDLSLAKRKTWRNPWRRSYHKRKKAEWEVDPDYCEEVKQTPPYDSSHRILDVMDMTIFDFLMGNMDRHHYETFEKFGNETFIIHLDNGRGFGKYSHDELSILVPLQQCCRIRKSTYLRLQLLAKEEYKLSLLMAESLRGDQVAPVLYQPHLEALDRRLRVVLKAVRDCVERNGLHSVVDDDLDTEHRAASAR
notes: human Fam20C, residues 63-584; otherwise the same construct as m2 and m8; also called WT Fam20C; hsFam20C; source: High Five insect cells (baculovirus), conditioned medium, purified

Columns and labels:
[1] = target: B3; assay: SEC; Fam20A mutants with human Fam20C; tetramer formation followed (Supplementary Fig. 5D); settings: both partners purified
[2] = target: the molecule itself; assay: not stated; ceFam20 (WT or F260A/P263G) in solution (Supplementary Fig. 3C)
[3] = target: the molecule itself; assay: AUC; purified Fam20C alone; oligomerises in a concentration-dependent manner; ~1 mg per ml

B1: Fam20A E299G/I300S (domain or fragment, human, UniProt Q96MK3 69-529, looked up)
chain: HNFSRTEPRTEPAGGSHSGSSSKLQALFAHPLYNVPEEPPLLGAEDSLLASQEALRYYRRKVARWNRRHKMYREQMNLTSLDPPLQLRLEASWVQFHLGINRHGLYSRSSPVVSKLLQDMRHFPTISADYSQDEKALLGACDCTQIVKPSGVHLKLVLRFSDFGKAMFKPMRQQRDEETPVDFFYFIDFQRHNAEIAAFHLDRILDFRRVPPTVGRIVNVTKEILEVTKNGSLQSVFFVSPASNVCFFAKCPYMCKTEYAVCGNPHLLEGSLSAFLPSLNLAPRLSVPNPWIRSYTLAGKEEWEVNPLYCDTVKQIYPYNNSQRLLNVIDMAIFDFLIGNMDRHHYEMFTKFGDDGFLIHLDNARGFGRHSHDEISILSPLSQCCMIKKKTLLHLQLLAQADYRLSDVMRESLLEDQLSPVLTEPHLLALDRRLQTILRTVEGCIVAHGQQSVIVDGPVEQ
notes: human Fam20A, residues 69-529; The mutations create a site for N-linked glycosylation (Asn298-Gly299-Ser300); The limits are those of the only insect-cell Fam20A construct told in the methods; source: High Five insect cells (baculovirus), conditioned medium, purified as the WT protein
[1]
  binding result: binds

B2: ceFam20 (Fam20C ortholog of Caenorhabditis elegans) (enzyme)
chain: SLPHQPIPPSLGEKDLSDPFNFLFSSNKITLRKLYDLTKNVDFDQLRQNECKKNITLSKFWEKSEQRNVPEDDNWERFYSNIGSCSVYSDDQMIDNLLHDLNTSPIKHVHIMDGGTQVKFVFTFKNDKQAVFKPMRFGRDYESDPNHFYFSDFERHHAEIATFHLDRVLGFRRAIPTVGRVLNMTTELFEKAEKKLKKTFFFSPAKNFCFVSRCDYYCDTTHAICGLPDMKEGSVQVFLPDESAVPRKHNRSPYRRTYSKKNQVAEWQSSMNYCTDKVKTKRQYAHGRRLLDLVDIHILDYLIGNQDRHHFESFNVFNDLPSYAIHLDHGRAFGRSDFDDDDIILPLRQCCILRPSTFQTLMNFYSTPKSLTKALHESLSKDPAHPILAYKHYPAMERRLAKIMSHILECFESRGVAEVLVAEYNNPDVSDAEQNDEEQSEEHQDKKDDKKTV
notes: C. elegans Fam20 (ceFam20)
[2]
  stoichiometry N: 2

## B3
[3]
  stoichiometry N: 2
